Series [1] has as its system corneal sensation of C57BL/6 and Vegf-b−/− mice. Description: Corneal nerve sensation testing (von Frey Hairs). The series is classed as in vivo, mouse. Here is the method:
The degree of recovered nerve sensation in the injured cornea was evaluated using calibrated von Frey Hairs (North Coast Medicals). In this method the center of the cornea of un-anesthetized mouse was touched with thin filaments of ascending stiffness (0.008 to 1.4 g) until the hairs buckled and a blink response was elicited. C57BL/6 wild type and Vegf-b^−/− mice subjected to corneal epithelial debridement and receiving subconjuntival injection of VEGF-B, as well as their respective controls, were evaluated to determine the minimal force (g) needed for a blink response. Eight mice were tested in each group in three individual experiments.

The subject of series [2] is trigeminal ganglion (TG) neuronal cells. Kind of series: Trigeminal ganglion neuronal growth assay. The series is classed as cell-based, mouse. The settings on record: VEGF-B on three consecutive days, culture day 6 (FIG. 11).
The next series concerns cornea. Particulars: mouse, in vivo. Here is the method:
(§1) Wild type C57BL/6 and Vegf-b^−/− mice were subject to corneal epithelial debridement as described above or left intact. A 5 ul volume containing 0.5 ng VEGF-B^186 in PBS was injected subconjunctivally, at the lateral temporal bulbar conjunctiva, using a 10-μl micro-syringe (Hamilton Co). Equal volume of 0.1% bovine serum albumin (BSA) was used in control mice. The recovery of the corneal epithelial injury was imaged at 24, 40 and 48 hours by applying 1% fluorescein solution to the corneal surface and wounds photographed under diffuse cobalt blue light attached to a slit lamp bio-microscope (Nikon FS-3, Nikon) connected to a digital camera (Canon EOS 60D). The corneal epithelial defect areas were quantified by analyzing the images with Photoshop CS4 (Adobe). Corneas were harvested after one week for immunodetection of nerves. Possible growth of blood vessel into the cornea was monitored by slit lamp examination.

Series [3] has as its system trigeminal ganglion (TG) neuronal cells. Kind of series: Trigeminal ganglion neuronal growth assay. It counts as cell-based, mouse. Here is the method: Trigeminal ganglion (TG) neuronal cells were obtained and cultured as described previously. Pan, Z., Fukuoka et al., FASEB J. 27, 2756-2767 (2013). To evaluate the effect of VEGF-B on neuronal growth, TG neuronal cells were treated with 10-100 ng/ml recombinant mouse VEGF-B^186 (R&D 767-VE-010). The VEGF-B treatments were replenished every other day. Neurite formation and growth was followed up to 3 days. […] VEGF receptors were inhibited by using neutralizing antibodies against VEGFR1 (R&D AF471), VEGFR2 (R&D MAB4431) and Neuropilin 1 (NRP1) (R&D MAB566). TG cells were incubated in a dose dependent manner with anti-VEGFR1, anti-VEGFR2 or anti-NRP1 for 1 hour prior to the addition of 50 ng/ml VEGF-B. The tyrosine kinase domains of VEGFR2 were inhibited with specific inhibitors by incubating TG neuronal cells with 10 μM SU 1498 (Sigma T4192) or 5 nM Ki 8751 (Sigma K1265) for 1 hr before adding 50 ng/ml VEGF-B. All neurite growth was imaged with an AxioObserver Z1 fluorescence microscope in the YFP channel attached to an AxioCam HRm digital camera (Zeiss) operated by AxioVision 4.0 software. Images were analyzed using Neurolucida 9 (MBF Bioscience) a quantitative nerve tracing software.

A further series deals with TG neuronal cells. Description: Cell viability assay (Live/Dead) of TG neuronal cells. It counts as cell-based, mouse. The settings on record: 50 ng/ml single dose on first day of culture without serum; day 2 and 3. As for the experimental part:
The effect of VEGF-B on the survival of TG neuronal cells was evaluated with the Live/Dead Viability/Cytotoxicity kit (Invitrogen), as described in Pan, Z., Fukuoka et al., FASEB J. 27, 2756-2767 (2013).

The subject of series [4] is corneal nerves of thy1-YFP mice. Kind of series: Corneal micropocket assay (VEGF-B releasing pellet). It counts as in vivo, mouse. Here is the method:
A sucralfate/hydron pellet impregnated with VEGF-B (100 ng/pellet) or vehicle was implanted into a corneal micropocket in anesthetized thy1-YFP mice subjected to a partial lamellar incision parallel to the limbus. Rogers, M. S. et al., The mouse cornea micropocket angiogenesis assay, Nature protocols 2, 2545-2550 (2007). Mice were allowed to recover for a day, after which a subset received a corneal debridement that removed a circular 2-mm region of central epithelium and the underlying sub-basal nerves. The corneas were harvested 3 days later, fixed in 4% paraformaldehyde (PFA) for 30 minutes, mounted in Vectashield medium (Vector Labs H1000) as whole mounts, and nerves imaged using the AxioObserver system as described above.
Harvested corneas from thy1-YFP mice were fixed in 4% PFA for 1 hr and then stained with 4,6-diamidino-2-phenylindole (DAPI) to label nuclei before mounting. The YFP fluorescent nerves were imaged with a fluorescence microscope at the site of pellet implantation and at a site 180 degrees opposite to the pellet. Images were analyzed using Neurolucida. […] wild type and Vegf-b^−/− mouse corneas were flat mounted and fixed as described. Pan, Z., Fukuoka et al., FASEB J. 27, 2756-2767 (2013). Samples were stained with rabbit anti-β3 tubulin antibody (Abcam 18207) overnight at 4° C., followed by alexaFluor568-conjugated goat anti-rabbit IgG (Life Technologies A11011) at room temperature for 1 hr and counter-stained with DAPI.

Series [5] concerns corneal epithelium of C57BL/6 and Vegf-b−/− mice. Kind of series: Corneal epithelial wound healing after debridement (fluorescein staining). The series is classed as in vivo, mouse. Particulars: 0.5 ng subconjunctival, 48 hours (FIG. 6A). As for the experimental part:
as §1

The test system of series [6] is corneal nerves of Thy-1-YFP mice. Kind of series: Corneal nerve regeneration with combinations of VEGF-A and VEGF-B. The settings on record: ligand administered separately, two weeks post-injury (FIG. 14). The series is classed as in vivo, mouse. Here is the method: Thy-1-YFP mice were subjected to cornea epithelium debridement to ablate the superficial nerve endings that innervate the cornea Immediately after injury, the mice were treated with different combinations of VEGF-A and VEGF-B. As shown, combinations of VEGF ligands induce greater nerve regeneration in vivo.
The observed effects were also recapitulated in vivo. Thy-1-YFP neurofluorescent mice were used to induce a corneal epithelium injury that results in ablation of the superficial nerve endings of the cornea. The mice were then treated with different combinations of VEGF-A and VEGF-B, and nerve regeneration was analyzed after two weeks post-injury.

Where [7] appears, read: 50 ng/ml each, three days in culture (FIG. 2B).
Setting [8] is: 50 ng/ml, three days in culture (FIG. 2B).

B1: recombinant mouse VEGF-B^186 (protein, listed as Homo sapiens)
chain: MSPLLRRLLLAALLQLAPAQAPVSQPDAPGHQRKVVSWIDVYTRATCQPREVVVPLTVELMGTVAKQLVPSCVTVQRCGGCCPDDGLECVPTGQHQVRMQILMIRYPSSQLGEMSLEEHSQCECRPKKKDSAVKPDRAATPHHRPQPRSVPGWDSAPGAPSPADITHPTPAPGPSAHAAPSTTSALTPGPAAAAADAAASSVAKGGA
notes: vascular endothelial growth factor B; recombinant mouse VEGF-B186 (R&D 767-VE-010)
In the case of B1, the “corneal sensation compared with untreated Vegf-b−/− mice” value in series [1] (Vegf-b−/− mice, 2 weeks post-injury (FIG. 4F)) is recorded as “significantly improved sensation”. Besides, in series [1] (wild type and Vegf-b−/− mice, 7 days of treatment (FIG. 4E)), the “functional recovery of corneal sensation” value is reported as “began to improve”. Further, the corneal sensation result in series [1] (wild-type mice, 2 weeks post-injury (FIG. 4F)) is listed as “completely restored”. In series [2], the “dendrite length and branching” value was “longer dendrites and more branches”. Moreover, the “neovascularization of the cornea” value in the series with cornea is “did not produce any unwanted neovascularization”. Further, in series [3] (50 ng/ml VEGF-B, 3 days in culture (FIG. 1)), the “length of neurites compared with untreated controls” value is listed as “almost four folds greater”. Further, in series [3] (setting [7]), the “neurite elongation compared with VEGF-A treatment” value is “more than 2 folds” and the “number of branching nodes compared with VEGF-A treated neurons” value is “more than 4 folds”. In addition, the “pattern of neurite growth (elongation and branching)” value in series [3] (50 ng/ml, three days in culture (FIG. 2A)) was “extensive elongation and branching of the neurites”. In series [3] (setting [8]), the “neurite elongation compared with untreated control” value is “five folds higher” and the “number of branching nodes compared with untreated control” value was “seven fold higher”. Besides, the “dose dependence of neurite growth induction” value in series [3] (10-100 ng/ml VEGF-B (FIG. 7)) was “dose-dependent”. For the same molecule, in series [3] (increasing concentrations of VEGF-B, 3 days in culture (FIG. 7)), the “most potent dose for inducing neurite elongation and branching” value came to 50 ng/mL. Besides, the “cells surviving (neuronal viability)” value with TG neuronal cells is on record as 50%. Further, the “innervation at sites of injury” value in series [4] (100 ng/pellet plus superficial corneal debridement, versus vehicle, 3 days) was “significantly increased innervation throughout sites of injury”. Besides, the “corneal nerve density or patterning” value in series [4] (100 ng/pellet, absence of injury, 3 days) is “no alteration of corneal nerve density or patterning”. In addition, the “nerve density at the site of pellet implantation” value in series [4] (100 ng/pellet, limited (focal) injury, versus vehicle) is “significant increased nerve density”. For the same molecule, the “injured epithelial area compared with untreated controls” value in series [5] (Vegf-b−/− mice) is listed as “only half the injured area”. Also, in series [5] (wild type mice), the epithelial healing result is listed as “almost complete healing”. Further, the nerve regeneration entry in series [6] is on record as “induced greater nerve regeneration”.

(Values after patent US9987329B2, “Methods for treating peripheral nerve damage” (Cornell University, priority 2014, dated 2018).)
